# Experiment: yeast display, Sf9 membrane polyspecificity reagent, FACS + sequencing; frameworks hold sequencing errors
# Outline: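 After 36–48 hours of galactose induction, yeast (Saccharomyces cerevisiae BJ5465) displaying a synthetic nanobody library were stained at 4 °C for 1 hour with 10% biotinylated, detergent-solubilized Sf9 membrane reagent. Streptavidin microbeads enriched the stained cells before FACS sorting into low and high (top ~1%) gates on anti-HA and streptavidin fluorescence. Each clone's polyreactivity label reflects its gate of origin.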
row,Sequence,polyreactivity (PSR sort gate)
1,QVQLVESRGGLVQAGGSLRLSCAASGMTFSDYPMGLYRQAPGKEREFVSAITSGGRTNYADSVKGRFTISRDNAKNTVYLQMNSLKPEDTAVYYCAAVYTYVYYYHYPYYYWGQGTQVTVSS,low polyreactivity
2,QVQLVASGGGLVQSGGSLRLSCASSGSTFFRYAMGWYRHAPGKERELVAAISWSGGPTYYADSVKGRFTISRDNAKNTVFLQMNSLKPQDTAVYYCNAVRQGHILDYWGQGSQVTVSS,low polyreactivity
3,QVQLVESGGGLVQAGGSLRLSCAASGRTFTINAMGWYRQAPGKERELVAAITSGGSTNYADSVKGRFTISRDNAKNTVYLQMNSLKPEDTAVYYCNAGYYSRRYYFSGRLDYWGQGTQVTVSS,low polyreactivity
4,QVQLVESGGGLVQAGGSLRLSCAASGSTFDTYAMGWYRQAPGKERELVAAISSGGSTNYADSVKGRFTISRDNAKNTVYLQMNSLKPEDTAVYYCADSNKSVFPVYGTLDEYWGQGTQVTVSS,low polyreactivity
5,QDQLVESGGGLVQAGGSLRLSCAASGTFRRYAMGWYRKAPGKERELVAAISSGGGSTYYADSVKGRFTISRDNAKNTVYLQMNSLKPEDTAVYDCAAANSYTFRYGSWGQGTQVTVSS,high polyreactivity
6,QVQIVESGGGLVQAGGSLRLSCAASGRIFDLNAMGWYRQAPGKEREFVASITWSVGSTYYADSVKGRFTISRDNAKNTVYLQMNSLKPEVTAVYYCAARSLSWTPYYYWGQGTQVTVSS,high polyreactivity
7,QVQLVESGGGLVQAGGSLRLSCAASGSIFQWYAMGWYRQAPGKERELVAAITISGTRTYYADSVKGRFTISRDNAKNTVYLQMNSLKPEDTAVYYCAARYTPRRYYYWGQGTQVTVSS,high polyreactivity
8,QVQLVESWGCLVQAGGSLRLSCAASGFTFESNAMGWYRQAPGKERELVAAITSSGGRTYYADSVKGRFTISRVNAKNTVYLQMNSLNPEDSAVYYCAATGKAPRESGGVYSMDWGQGTQVTVSS,low polyreactivity
9,QVQLVESGGGLVQAGGSLRLSCAASGRIFYWYARGWYRQAPGKERELVASISRRAGSTYYADSVKGRFTISRDNAKNTVYLQMHSLKPEDTAVYYCAAVGRFDRVFDYDYWGQGTQVTVSS,high polyreactivity
10,QVQLVESGGGLVQAGGSLRLSCAASGYIFYTYAMGWYRQAPGKERELVASIDSGGSTNYADSVKGRFTISRDNAKNTVYLQMNSLKPEDTAVYYCAADVIVRVYYYYYVLMDYWGHGTQVTVSS,low polyreactivity
11,QVQLVESGGGFVEAGGSLRLSCAASGSIFRSYAMGWYRQAPGKERELVAAISSGDSTNYADTVKRRFTISRDNAQNTGYLQMNSLKPEDTADYYCAADQVQYTGYTEYDWGQGTQVTVSS,low polyreactivity
12,QVHLVESGGGLVQAGGSLRLSCASYGRTFGIYAMGWYRQAPGKERELVATISWRGGSTYYADSVKGRFTISRDNAKNTVYLQMNSLKPEDTAVYYCAAETWYSGYTYDYWGQGTQVTVSS,low polyreactivity
13,QVQLVESGGGLVQAGGSLRLSCAASGFIFAYNAMGWYRQAPGKERELVAAISWSGGSTYYADSVKGRFTISRDNAKNTVYLQMNSLKPEDTAVYYCNKYIRYPFKRYGYWGQGTQVTVSS,high polyreactivity
14,QVQLVESGGGLVQAGGSLRLSCAASGRILIPYAMGWYRQAPGKEREFVAGITGSGGRTYYADSVKGRFTISRDNAKNTVYLQMNSLKPEDTAVYYCAADYYYSPTMYYWGQGTQVTVSS,low polyreactivity
15,QVQLVESGGGLVQAGGSLRLSCAASGLPSKLMHMGWYRQAPGKERELVAAISSSGGRTYYADSVKGRITISRDNAKNTVYLQMNILKPEDTAVYYCAATARYRSYSASYYWGQGTQVTVSS,high polyreactivity
16,QVQLVESGGGLVQAGGSLRLSCAASGITFSFYTMGWYRQAPGKERELVAAMTQDGGSTYYADSVKGRFTISRDNAKNTVYLQMNSLKPEDTAVYYCASDLVVFVQFDVAVDYYYWGQGTQVTVSS,low polyreactivity
17,QVQLVESGGGLVQAGGSLRLSCAASGGIFDTYVMGWYRQAPGKERELVAAITWSGGSTYYADSVKGRFTISRDNAKNTVYLQMNSLKPEDTAVYYCAASGYPIYHDDYWGQGTQVTVSS,low polyreactivity
18,QVQLVESGGGLVQAGGSLRLSCADSGFTFYRYARGWYRQAPGKERELVADITSGGSTNYADSVKGRFTISRDNAKNTVYLQMNSLKPEDTAVYYCNADRWYGSVYRYGYWGQGTQVTVSS,high polyreactivity
19,QVQLVESGGGLVQAGGSLRLSCAASGFIFYYNTMGWYRQAPGKERELVASITWSGDTTYYADSVKGRFSISRDNAKNTVYLQMNSLIPEDTAVYYCAAVHYYPYRRYDYWGQGTQVTVSS,low polyreactivity
20,QVQLVESGGGLVQAGGSLRLSCAASGRIFRYNAMGWYRQAPGKERELVAAISRSGGSTYYADSVKGRFTISRDNAKNTVYLQINSLKPEDTAVYYCAVGSPYGGRAPWVRGGDYWGQGTQVTVSS,high polyreactivity
21,QVQLVESGGGLVQAGGSLRLSCAASGFTIDAYAMGWDRQAPGKERELVAAISGSGGSTYYADSVKGRFTISRDNAKNTVYLQMNSLKPEDTAVYYCATDPGPYDYDYWGQGTQVTVSS,low polyreactivity
22,QVQLVESGGGLVQAGGSLRLSCAASGFIFRYNAMGWYRQAPGKEREFVAAISQGGASTYYADSVKGRFTISRVNAKNTVYLQINSLKPEDTAVYYCAREPSIFTPSYDYWGQGTQVTVSS,low polyreactivity

row,Sequence,polyreactivity (PSR sort gate)
1,QVQLVESGGGLVQAGGSLRLSCAASGRTFLRNAMGWYRQAPGKERELVAAISWRGGSTYYADSLKGRFTISRDNAKNTVYLQMNSLKPEDTAVYYCNARDGLASDWGQGTQVTVSS,high polyreactivity
2,QVQLVESGGGLVQAGGSLRLSCGASGFIFKSYAMGWYRQATGKERELVAAFSRSGSSTYYADSVMGRFTISRDNAKNTVYLQMNSLKPEDTAVYYCAKKGYRFIHFGYDYWGQGTQVTVSS,high polyreactivity
3,QVQLVESGGGLVQAGGSLRLSCAASGFTFRYYAMGWYRQAPGKERELVAAISSGGRTNYADSVKGRFTISRDNAKNTVYLQMNSLKPEDTAVYYCAKAQYYYIGDYDYWGQGTQVTVSS,high polyreactivity
4,QVQLVESGGGLVQAGGSLRLSCAASGSIFQVYAMGWYRQAPGKEREFVAAISYSGGGTYYADSVKGRFTISRDNAKNTVYLQMNSLKPEDTAVYYCAADVSGWEYDYWGQGTQVTVSS,low polyreactivity
5,QVQLVESGGGLVQAGGSLRLSCAASGRILGRYAMGWYRQAPGKERELVAAISGSGTSTYYADSVKGRFTISRDNAKNTVYLQMNSLKPEDTAVYYCAAKWITRRGGDFDYWGQGTQVTVSS,high polyreactivity
6,QVQLVESGGGLDQAGGSLRLSCAASGFTSYLYTMGWYRQAPGKERELVAAISNSGGNTYYADSLKGRFTISRDIAKKTVYLQMNSLKPEDTAVYYCAAVRRISRYDYWGQGTQVTVSS,high polyreactivity
7,QVQLEESGGGLVQAGGSLRLSCAASGPIFPGYVMGWYRQAPGKERELVAAISVRGGSTYYADSVKGRFTISRDNAKNTVYLQMNSLKPEDTAVYYCAADSYYYQGYRRYNYDYWGQGTQVTVSS,high polyreactivity
8,QVQIVESGGGLVQAGCSLRLSCAASGNIFRGYTMGWYRQAPGKEWELVATITWNGVSTFYADSVKGRFTISRDNAKNTGYLQMNSLKPEDTAVYYCAAYYPSHDYSGFGSDTYEYWGQGTQVTVSS,low polyreactivity
9,QVQLVESGGGLVPAGGSLRLSCAASGNNFRANTMGWYRQARGKERELVASIRRSGGSSYYADSVKGRFTISRDNAKNTVYLQMNSLKPEDTAAYYCAAESRPPYTDNYYWGQGTQVTVSS,high polyreactivity
10,QVQLVESGGGLVQAGGSLRLSCAASVSIFKVNAMGWYRQAPGKERELVAAISTSGSRTYYADSVKGRFTISRDNAKNTVYLQMNSLKPEDTAVYYCADDSYAGIVRYGYWGKGTQVTVSS,high polyreactivity
11,QVQLVESGGGLVQAGGSLRLSCAASGRTLGAYAMGWYRQAPGKERELVAAIRWSGSSTYYADSVKGRFTISRDNAKNTVYLQMNSLKPEDTAVYYCAAYWSRVLYGMNYWGQGTQVTVSS,high polyreactivity
12,QVQLVESGGGLVQAGGILRLSCAASGSTLTSNDMGWYRQAPGKERELFADITWSGGDTYYADSVKGRFTISRDNAKYTVYLQMNSLKPEDTAVYYCAAEDPNYRPFAYGIEYDYWGQGTQVTVSS,low polyreactivity
13,QVQLVESGGGLVQAGGSLRLSCAASGSTFARNTMGWSRQAPGKEREIVAAIDWSGGNTYYADSVKGRFTISRDNAKNTVYLQMNSLKPEDTAVYNCYDYWGQGTQVTVSS,low polyreactivity
14,QVQLVESGGGLVQAGGSLRLSCAASGFTFHNYAMGWYRQAPGKERELVAVIRWRGGSTYYADSVKGRFTISRDNAKNSVYLQMNSLKPEDTAFYYCAKRARGSYYWGYNYWGQGTQVTVSS,high polyreactivity
15,QVQLVESGGGLVQAGGSLRLSCAASGRTFVTYVMGWYRQAPGKEREFVAAIRWSGGRTYYADSVKGRFTISRDNAKNTVYLQMNSLKPEDTAVYYCAAVYYDRSYRYEYWGQGTQVTVSS,high polyreactivity
16,QVQLEESAGGLVQAGGSHRLSCADTGRTFRWYAMGWYRQAPGKERELVAAISRNGGSTSFADSVKGRFTISRDNAKKTVYLQLNSLKPEDTAVYYCAAGSRVQWYGYDYWGQGTQVTVSS,high polyreactivity
17,QVQLEESGGGLDQAGGSLRLNCAASGLISVYYVRGWYIQAPGKELELVAAINRSGGNTYYADSVKGRFTISRDNAQNTVNLQMNRLKPDVTAVYYCKASLYFYRYGHDYESDYWGQGTQVTVSS,high polyreactivity
18,QVQLVDSGGGLVQAGGSLRLSCPASGRTFFNNVMGWSRQAPGKEREWVAAISKSGTRTYYADSVKGRFTISRDNAKNTVYLQMNSLKPEDTAVYYCATGPYLRTSRYYYWGQGTQVTVSS,high polyreactivity
19,QVQLVESGGGLVQAGGSLRLSCAASGFTFKYYAMGWYRQAPGKERELVAVINQSGGSTSYADSVKGRFTISRDNAKNTVYLQMNSLKPEDTAVYYCAALVGLFWLWNYDYWGQGTQVTVSS,high polyreactivity
20,QVQLVESGGGLVQAGGSLRLSCAASGRTFKGNAMGWYRQAPGKERELVAAISKSGGRTYYADSVKGRFTISRDNAKNTVYLQMNSLKPEDTAVYYCAAGYYPSSSGDDYWGQGTQVTVSS,high polyreactivity
21,QVQLVESGGGLVQAGGSLRLSCAASGSIVIINAMGWYRQAPGKERELVASMTRNGGSTYYADSVKGRFTISRDNPKNTVEFQMNSLKPDDTAVYYCAATYYRFPSLIAYVRYDYWGQGTQVTVSS,high polyreactivity

# From the nanobody polyreactivity screen of Harvey et al. (2022)
